120 sequences from the supplement of paper PMC10126150 can be followed below.

± gives the standard deviation of the averaged measurements.

The test system of this data set is ATP. Description: switch fluorescence ratio, 500 uM ATP over buffer (Cy3 cluster intensity, sum of 5 cycles each) (fold (ratio)); higher = stronger signal-on switching upon ATP binding; sequences stand for … in TCGTCGGCAGCGTCAGATGTGTATAAGAGACAGTTTTTTTTTTTTTTTTTTTTTTTTT…TC. The note with it: aptamer strand: ATP DNA aptamer (quencher-CACCTGGGGGAGTATTGCGGAGGAAGG + anchor), 100 nM annealed; ATP concentration: 500 uM. The procedure, abridged: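 Clusters carrying Cy3-labelled switching strands on a modified Illumina MiSeq flow-cell were annealed to 100 nM quencher-labelled ATP aptamer and imaged in selection buffer. They were imaged again after 15 min with 500 uM ATP at 22 °C, over five buffer/ATP cycles with NaOH stripping and re-annealing in between. For each cluster, the fluorescence ratio is the summed Cy3 intensity of the target cycles divided by that of the buffer cycles, averaged per switch-domain sequence. Clusters outside 100-1000 RFU were left out.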
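Further: ATP exposure 15 min at 22 °C before imaging.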

Consider GTTGTAATGG, for which the switch fluorescence ratio amounted to 1.01 ± 0.049.

On to GTTGTAGCTC, for which the switch fluorescence ratio came to 1 ± 0.023.

Regarding GTTGTAGTGT, the switch fluorescence ratio came to 1.011 ± 0.0011.

Regarding GTTGTATCAT, the switch fluorescence ratio came to 0.98846 ± 0.00088.

Take GTTGTATTGT: the switch fluorescence ratio amounted to 0.999 ± 0.019.

Consider GTTGTCAATG, for which the switch fluorescence ratio is 0.974 ± 0.021.

Turning to GTTGTCATGT, the switch fluorescence ratio came to 0.991 ± 0.017.

For GTTGTCCGGG, the switch fluorescence ratio was 1 ± 0.027.

As for GTTGTGGTCA, the switch fluorescence ratio is 0.9771 ± 0.0067.

As to GTTGTGGTTG, the switch fluorescence ratio turned out to be 0.987 ± 0.035.

GTTGTGTGAT: the switch fluorescence ratio worked out at 0.982 ± 0.027.

Turning to GTTGTGTGTT, the switch fluorescence ratio was found to be 0.975 ± 0.016.

With GTTGTTGAGG, the switch fluorescence ratio was 0.999 ± 0.012.

As for GTTGTTGGGG, the switch fluorescence ratio turned out to be 0.974 ± 0.043.

Take GTTGTTGTTG: the switch fluorescence ratio stood at 0.996 ± 0.045.

As to GTTTAACCCG, the switch fluorescence ratio was found to be 1.002 ± 0.0033.

As to GTTTAAGCGG, the switch fluorescence ratio was 0.969 ± 0.034.

Regarding GTTTAAGGGG, the switch fluorescence ratio came out at 1.005 ± 0.0068.

Turning to GTTTAATGTT, the switch fluorescence ratio came out at 1.023 ± 0.0022.

Regarding GTTTAATTGA, the switch fluorescence ratio is 0.9676 ± 0.0018.

For GTTTACAAGT, the switch fluorescence ratio came to 0.992 ± 0.027.

On to GTTTACGGGG, for which the switch fluorescence ratio was determined as 0.997 ± 0.041.

Take GTTTACTGAA: the switch fluorescence ratio stood at 1.01 ± 0.018.

With GTTTACTTAG, the switch fluorescence ratio stood at 1.024 ± 0.005.

For GTTTACTTAT, the switch fluorescence ratio worked out at 1.037 ± 0.0024.

Take GTTTAGAATT: the switch fluorescence ratio turned out to be 1.004 ± 0.01.

As to GTTTAGGGGG, the switch fluorescence ratio was 0.994 ± 0.018.

Regarding GTTTATAAAG, the switch fluorescence ratio stood at 0.9899 ± 0.0023.

As to GTTTATCTGC, the switch fluorescence ratio was 1.02 ± 0.025.

With GTTTATGCAG, the switch fluorescence ratio turned out to be 0.968 ± 0.017.

Turning to GTTTATGTAC, the switch fluorescence ratio came out at 1.07 ± 0.065.

As for GTTTATTCGG, the switch fluorescence ratio worked out at 0.981 ± 0.019.

With GTTTCCAGGG, the switch fluorescence ratio amounted to 1.16 ± 0.023.

As to GTTTCCGTTG, the switch fluorescence ratio worked out at 0.98414 ± 0.00058.

With GTTTCGCAGG, the switch fluorescence ratio is 1.01 ± 0.015.

For the sequence GTTTCGCGGT, the switch fluorescence ratio was 1.04 ± 0.067.

For GTTTCTGTGT, the switch fluorescence ratio was 0.956 ± 0.012.

As for GTTTGAGACG, the switch fluorescence ratio stood at 0.903 ± 0.044.

Turning to GTTTGAGGGA, the switch fluorescence ratio amounted to 0.982 ± 0.035.

With GTTTGAGTTG, the switch fluorescence ratio amounted to 1.01 ± 0.038.

On to GTTTGATAAA, for which the switch fluorescence ratio turned out to be 0.981 ± 0.034.

Consider GTTTGATGAA, for which the switch fluorescence ratio was found to be 0.994 ± 0.084.

Consider GTTTGCGTAT, for which the switch fluorescence ratio is 1.02 ± 0.048.

As to GTTTGGAGAA, the switch fluorescence ratio stood at 1.01 ± 0.034.

With GTTTGGCTTT, the switch fluorescence ratio was determined as 1.015 ± 0.0012.

On to GTTTGGGAAC, for which the switch fluorescence ratio worked out at 1.02 ± 0.019.

For the sequence GTTTGGGGCC, the switch fluorescence ratio was found to be 1.057 ± 0.01.

Regarding GTTTGGGTGA, the switch fluorescence ratio was found to be 1 ± 0.026.

Turning to GTTTGGGTGG, the switch fluorescence ratio worked out at 0.9979 ± 0.0065.

Take GTTTGGTATG: the switch fluorescence ratio was 0.988 ± 0.017.

As to GTTTGGTCTT, the switch fluorescence ratio turned out to be 0.95 ± 0.017.

Consider GTTTGGTTTT, for which the switch fluorescence ratio came to 0.99 ± 0.014.

In the case of GTTTGTCCTG, the switch fluorescence ratio was determined as 1.007 ± 0.0071.

On to GTTTGTGAAC, for which the switch fluorescence ratio is 0.9821 ± 0.006.

As to GTTTGTGGAG, the switch fluorescence ratio is 0.9683 ± 0.0071.

Take GTTTGTGGGT: the switch fluorescence ratio turned out to be 0.977 ± 0.011.

Consider GTTTGTGGTG, for which the switch fluorescence ratio is 1.01 ± 0.017.

For GTTTGTGTTG, the switch fluorescence ratio is 0.993 ± 0.017.

Take GTTTGTTATG: the switch fluorescence ratio came to 0.999 ± 0.042.

GTTTGTTCGG: the switch fluorescence ratio turned out to be 0.995 ± 0.015.

GTTTGTTTAC: the switch fluorescence ratio was determined as 0.987 ± 0.014.

As to GTTTTAAGTG, the switch fluorescence ratio was determined as 0.981 ± 0.034.

GTTTTAATTA: the switch fluorescence ratio was 1.01 ± 0.021.

As to GTTTTAGCGC, the switch fluorescence ratio worked out at 1 ± 0.049.

Turning to GTTTTAGGGA, the switch fluorescence ratio was 0.979 ± 0.037.

As for GTTTTATCAG, the switch fluorescence ratio was determined as 0.961 ± 0.039.

Consider GTTTTATGCG, for which the switch fluorescence ratio was determined as 1.02 ± 0.035.

Regarding GTTTTATTCT, the switch fluorescence ratio amounted to 1 ± 0.023.

For GTTTTATTGA, the switch fluorescence ratio was 0.986 ± 0.015.

On to GTTTTCATGG, for which the switch fluorescence ratio was found to be 0.996 ± 0.013.

Regarding GTTTTCCGGG, the switch fluorescence ratio was found to be 1.01 ± 0.027.

On to GTTTTCGTCG, for which the switch fluorescence ratio stood at 1.01 ± 0.054.

GTTTTCTGTT: the switch fluorescence ratio is 1.0024 ± 0.00021.

Turning to GTTTTGGCG, the switch fluorescence ratio came out at 1.03 ± 0.032.

Consider GTTTTGGTCG, for which the switch fluorescence ratio is 0.9894 ± 0.007.

With GTTTTGTAAG, the switch fluorescence ratio worked out at 1 ± 0.023.

For the sequence GTTTTGTGCA, the switch fluorescence ratio was 0.9978 ± 0.0052.

Consider GTTTTTACTA, for which the switch fluorescence ratio amounted to 0.998 ± 0.014.

Regarding GTTTTTCTGG, the switch fluorescence ratio was determined as 0.9738 ± 0.0078.

For GTTTTTGAAT, the switch fluorescence ratio came out at 0.992 ± 0.033.

Regarding GTTTTTGACG, the switch fluorescence ratio is 0.955 ± 0.042.

For the sequence GTTTTTGATG, the switch fluorescence ratio amounted to 0.971 ± 0.021.

As to GTTTTTGGGT, the switch fluorescence ratio came out at 0.984 ± 0.033.

As to GTTTTTTCGA, the switch fluorescence ratio stood at 1.024 ± 0.0051.

For the sequence GTTTTTTGCT, the switch fluorescence ratio is 0.9809 ± 0.0051.

With GTTTTTTGTT, the switch fluorescence ratio is 0.999 ± 0.043.

Regarding GTTTTTTTCT, the switch fluorescence ratio amounted to 1 ± 0.051.

On to GTTTTTTTGA, for which the switch fluorescence ratio worked out at 1.0032 ± 0.00018.

Take TAAAAAAGAG: the switch fluorescence ratio was determined as 0.98 ± 0.03.

As to TAAAAAAGGT, the switch fluorescence ratio came out at 1.04 ± 0.088.

Regarding TAAAAAAGTG, the switch fluorescence ratio was determined as 1.02 ± 0.02.

In the case of TAAAAAATGG, the switch fluorescence ratio came out at 1 ± 0.044.

TAAAAAGAAG: the switch fluorescence ratio is 1 ± 0.045.

Turning to TAAAAAGGGT, the switch fluorescence ratio is 1 ± 0.048.

As for TAAAAATAAA, the switch fluorescence ratio was found to be 0.995 ± 0.0065.

Consider TAAAAATGGT, for which the switch fluorescence ratio is 1.01 ± 0.024.

With TAAAAATTTT, the switch fluorescence ratio is 0.999 ± 0.01.

On to TAAAACCGGG, for which the switch fluorescence ratio came out at 1 ± 0.025.

Turning to TAAAACCTGA, the switch fluorescence ratio was found to be 1.17 ± 0.054.

On to TAAAACGCGT, for which the switch fluorescence ratio is 1.68 ± 0.94.

TAAAACTTAC: the switch fluorescence ratio stood at 1.45 ± 0.1.

In the case of TAAAAGAGGT, the switch fluorescence ratio came to 0.9962 ± 0.0081.

On to TAAAAGCCTG, for which the switch fluorescence ratio is 1.02 ± 0.052.

For TAAAAGCTGG, the switch fluorescence ratio was 1.02 ± 0.078.

As for TAAAAGGACG, the switch fluorescence ratio came out at 1.09 ± 0.024.

Take TAAAAGGGAG: the switch fluorescence ratio turned out to be 1.03 ± 0.058.

Regarding TAAAAGGGGC, the switch fluorescence ratio stood at 0.985 ± 0.098.

For the sequence TAAAAGGGTG, the switch fluorescence ratio amounted to 0.977 ± 0.033.

On to TAAAAGTAGT, for which the switch fluorescence ratio came to 1.03 ± 0.041.

Regarding TAAAAGTTAA, the switch fluorescence ratio worked out at 0.981 ± 0.018.

As for TAAAATAGTG, the switch fluorescence ratio came to 0.997 ± 0.047.

Regarding TAAAATCATT, the switch fluorescence ratio is 0.974 ± 0.035.

For the sequence TAAAATGGTT, the switch fluorescence ratio was 1.02 ± 0.032.

On to TAAAATTGAT, for which the switch fluorescence ratio was 0.9818 ± 0.0038.

As for TAAAATTGTT, the switch fluorescence ratio amounted to 0.991 ± 0.052.

TAAACACTAA: the switch fluorescence ratio was 1.01 ± 0.038.

On to TAAACCGGTA, for which the switch fluorescence ratio came to 1.03 ± 0.031.

TAAACGAAGC: the switch fluorescence ratio came out at 1.06 ± 0.039.

For TAAACGGGGG, the switch fluorescence ratio turned out to be 1.04 ± 0.045.

As to TAAACGTCGA, the switch fluorescence ratio was 0.962 ± 0.065.
